Experimental data reported in the DeepSol protein solubility set.

test: soluble on expression in E. coli; label from the status in PepcDB or PDB records

Row | Sequence | soluble on expression in E. coli
1 | MEAIDQLVGQWQKDGLSPSQVAEKFSKCVLYVTCEPCIMCASALSFLGIKEVYYGCPNDKFGGCGSILSLHLGSEEAQRGKGYKCRGGIMAEEAVSLFKCFYEQGNPNAPKPHRPVVQRERT | soluble
2 | MSRNNEELQGISLLGNQKTQYPTGYAPEILEAFDNKHPDNDYFVKFVCPEFTSLCPMTGQPDFATIYIRYIPHIKMVESKSLKLYLFSFRNHGDFHEDCVNIIMKDLIALMDPKYIEVFGEFTPRGGIAIHPFANYGKAGTEFETLARKRLFEHDAQ | not soluble
3 | MAHHHHHHMIKCLKNNINIWKRVRRNVSYGYYNININEKIHKYFDNIDKKRNIKYISDCKSCKECVDEIKNGNYNLLKDFNMKMIGLDIEGYKIGKYGIVSIIQICYEDIYIFDIYKCDNVYLFINYIKDILECDDIIKVTHDCREDCSILYNQYNIHLKNILDTQVAYNLLLKNNNNYTNTYQISYDDLLKKYLFINNNHKIYFHKMITLDNYIYLKRPIMKELISYAIQDVIYLKPLILCILDKFIIKQKKKEEQEKNKYVNDKQNNKIKQEKFDKTSNTLQSKGNISSFNNQDLYHTKEIIQDIILHSKKYVNYQFLNSHIKDEKELQKGMILEGMVVSCNNTKMYLKLNMRKRGVILNYVQNKYEIGDIVKAVIVNFTRNDYINLGLYDEKILTLDAQKYIPREEVLQNIQKFLLNEEKI | not soluble
4 | MTEPKKEIIEDENHGISKKIPTDPRQYEKVTEGCRLLVMMASQEEERWAEVISRCRAANGSIKFYVHYIDCNRRLDEWVQSDRLNLASCELPKKGGKKGAHLREENRDSNENEGKKSGRKRKIPLLPMDDLKAESVDPLQAISTMTSGSTPSLRGSMSMVGHSEDAMTRIRNVECIELGRSRIQPWYFAPYPQQLTSLDCIYICEFCLKYLKSKTCLKRHMEKCAMCHPPGNQIYSHDKLSFFEIDGRKNKSYAQNLCLLAKLFLDHKTLYYDTDPFLFYVLTEEDEKGHHIVGYFSKEKESAEEYNVACILVLPPFQKKGYGSLLIEFSYELSKIEQKTGSPEKPLSDLGLLSYRSYWSMAIMKELFAFKRRHPGEDITVQDISQSTSIKREDVVSTLQQLDLYKYYKGSYIIVISDEKRQVYEKRIEAAKKKTRINPAALQWRPKEYGKKRAQIMF | not soluble
5 | MSLRERNQVIPVLPPQERPRPTVVFDCEDFLVKKRFSFFNLDFLVTGRAFADLFLFHAAHIYELVHVSGSPGSFSRLLLHRIDPYGCISYKVYCKDKKTFSSEHLNRPLQRVMVVSTRENEYHKDFDGNTIKLERWSGDPEHGLLDLLNFLHSLHFMGIKDFRGTLRSYLGEGHHHHHH | not soluble
6 | MGSSHHHHHHSSGLVPRGSHMISNKLANIPDSYFGKTMGRKIEHGPLPLINMAVGIPDGPTPQGIIDHFQKALTIPENQKYGAFHGKEAFKQAIVDFYQRQYNVTLDKEDEVCILYGTKNGLVAVPTCVINPGDYVLLPDPGYTDYLAGVLLADGKPVPLNLEPPHYLPDWSKVDSQIIDKTKLIYLTYPNNPTGSTATKEVFDEAIAKFKGTDTKIVHDFAYGAFGFDAKNPSILASENGKDVAIEIYSLSKGYNMSGFRVGFAVGNKDMIQALKKYQTHTNAGMFGALQDAAIYALNHYDDFLEEQSNVFKTRRDRFEAMLAKADLPFVHAKGGIYVWLETPPGYDSEQFEQFLVQEKSILVAPGKPFGENGNRYVRISLALDDQKLDEAAIRLTELAYLYE | soluble
7 | MSEEWEPKIVGFCCNWCTYGGADTAGVGRMQYPPSIRIIRVMCSGRIEPSFILKAFKEGADGVFIGGCHLGDCHYDAGNYKWQRRVMMLYDMLDELGIGRERVLHEWISASEGEKFQTKMNEIYDRIKALGPCTLNENLK | not soluble
8 | MANPRGFCAGVDRAISIVENALAIYGAPIYVRHEVVHNRYVVDSLRERGAIFIEQISEVPDGAILIFSAHGVSQAVRNEAKSRDLTVFDATCPLVTKVHMEVARASRRGEESILIGHAGHPEVEGTMGQYSNPEGGMYLVESPDDVWKLTVKNEEKLSFMTQTTLSVDDTSDVIDALRKRFPKIVGPRKDDICYATTNRQEAVRALAEQAEVVLVVGSKNSSNSNRLAELAQRMGKHAFLIDDAKDIQEEWVKEVKCVGVTAGASAPDILVQNVVARLQQLGGGEAIPLEGREENIVFEVPKELRVDIREVD | not soluble
9 | MSQPIQFESNIALINYPKQAAFGRTLPKNKIYEHSGANTRLKDLFIEQVELIVWRYKLAPETINLPARPGVPELQIFSIQLKTSELNLDVLHCIDGAVQFPIIFELSFDGRTKVIAAYKRPNESDASRWVLSSYFATAWLPSDSERAAIPLALDLGGLYEQVLHRLIPMPARPQESLADLVARVEMVAAKQREVEKAASRLAKEKQFNRKVEINAQLRQLKNELEELTGRENA | not soluble
10 | MSLFMPPVFPAHWHVSQPVLIADTFSSLVWKVSLPDGTPAIVKGLKPIEDIADELRGADYLVWRNGRGAVRLLGRENNLMLLEYAGERMLSHIVAEHGDYQATEIAAELMAKLYAASEEPLPSALLPIRDRFAALFQRARDDQNAGCQTDYVHAAIIADQMMSNASELRGLHGDLHHENIMFSSRGWLVIDPVGLVGEVGFGAANMFYDPADRDDLCLDPRRIAQMADAFSRALDVDPRRLLDQAYAYGCLSAAWNADGEEEQRDLAIAAAIKQVRQTSYEGHHHHHH | soluble
11 | MAHHHHHHMGYMQEREEMSAMVDQRTAQLEALTSSVAEAQKKLQALDERMMALEPHGNVQATAPAGATATTSKRARAGASSVGGAWDAAGVASATKMPPEELKKKVEESIEHIFHLLRTGDQQLKLTAQNPNLRKSVDGAKVAGNASHGRSRAASLHRGPKALQSSTMQTGKMKAATGGSSYDSQRPSSGAHRSGKSTVGATTAAGAADAASQQQHHDASMGPVEMLTIIENKLEEYHRYLSDPANHVELALMKAVMKQSDKQRRRQARIIHLANQEDEQEERIRRALERSQAPIIHKIGKPFRPRSFVSKPIDEKSRRKAERAAAALNGSLDNIDSDEDGAEFFM | soluble
12 | MGSDKIHHHHHHMKELFEFNNVSFSYKDVKEQALVDLNFSIKKGSLTLITGSSGSGKSTLLKLMNGLIPRLYDGKLVGEILFENNSLQSLTQESISKNIGYVSQDPRGQFFTTNTTSELVFSMENFGFTKEHMDKRINELAELLDLSNILDKNIFSLSSGERQKISIGCSLSLNSKLIILDEPSSNLDFQATKKLADLLCDLKNKGFTIVIAEHRFYYLKELIDQVLFVKNRTVKTTTIQLLKTENNNALRKFDIFNSSIEVPYIEKASADVLKVEEITYENILKDINFDVKVGDVIGLVGKNGVGKTTLLRILMKIIRPTKGKIIENKKNLSSPFLVMQEMDYQFFTESVRSELALGNEIVSKDQQEKILKKMELYKMKDQLPFDLSGGEKQRLLVSIASLSKTNLFLFDEPTSGLDYINMERIADLIKDLKEKGAVVIATHDPEFLYKICNRIIYLKNGGIKKDIKLRVEDSTLIEQIFNDITK | not soluble
13 | MKFCSLCGATVVQRIPDGDNRLRYVCDACHTVHYQNPRIVAGSLPVWDGQVLLCRRAIAPRLGYWTLPAGFMENGETLAQAAARETEEEANARIGDLQLYTLFDLPHISQVYLFFRAELLDLDFSAGDESLEVRLFDEAEIPWSELAFPTIGRTLECYFSDRREGCFPVRNEAIAPMLASYKKD | not soluble
